Reference: the supplement of paper PMC12458215
± gives the uncertainty stated by the source.

Tested on: HEK293T
Assay: plasma membrane surface immunostaining intensity (anti-HA, deep receptor scanning) (arbitrary fluorescence units); higher = higher plasma membrane expression
Conditions: GPCR class: A

In order of rising “plasma membrane surface immunostaining intensity” value:
1. MGTEATEQVSWGHYSGDEEDAYSAEPLPELCYKADVQAFSRAFQPSVSLTVAALGLAGNGLVLATHLAARRAARSPTSAHLLQLALADLLLALTLPFAAAGALQGWSLGSATCRTISGLYSASFHAGFLFLACISADRYVAIARALPAGPRPSTPGRAHLVSVIVWLLSLLLALPALLFSQDGQREGQRRCRLIFPEGLTQTVKGASAVAQVALGFALPLGVMVACYALLGRTLLAARGPERRRALRVVVALVAAFVVLQLPYSLALLLDTADLLAARERSCPASKRKDVALLVTSGLALARCGLNPVLYAFLGLRFRQDLRRLLRGGSCPSGPQPRRGCPRRPRLSSCSAPTETHSLSWDN [CCR10]  424 ± 20
2. MDGSNVTSFVVEEPTNISTGRNASVGNAHRQIPIVHWVIMSISPVGFVENGILLWFLCFRMRRNPFTVYITHLSIADISLLFCIFILSIDYALDYELSSGHYYTIVTLSVTFLFGYNTGLYLLTAISVERCLSVLYPIWYRCHRPKYQSALVCALLWALSCLVTTMEYVMCIDREEESHSRNDCRAVIIFIAILSFLVFTPLMLVSSTILVVKIRKNTWASHSSKLYIVIMVTIIIFLIFAMPMRLLYLLYYEYWSTFGNLHHISLLFSTINSSANPFIYFFVGSSKKKRFKESLKVVLTRAFKDEMQPRRQKDNCNTVTVETVV [MAS1]  782 ± 65
3. MASLSQLSGHLNYTCGAENSTGASQARPHAYYALSYCALILAIVFGNGLVCMAVLKERALQTTTNYLVVSLAVADLLVATLVMPWVVYLEVTGGVWNFSRICCDVFVTLDVMMCTASILNLCAISIDRYTAVVMPVHYQHGTGQSSCRRVALMITAVWVLAFAVSCPLLFGFNTTGDPTVCSISNPDFVIYSSVVSFYLPFGVTVLVYARIYVVLKQRRRKRILTRQNSQCNSVRPGFPQQTLSPDPAHLELKRYYSICQDTALGGPGFQERGGELKREEKTRNSLSPTIAPKLSLEVRKLSNGRLSTSLKLGPLQPRGVPLREKKATQMVAIVLGAFIVCWLPFFLTHVLNTHCQTCHVSPELYSATTWLGYVNSALNPVIYTTFNIEFRKAFLKILSC [DRD3]  3810 ± 240
4. MPIMGSSVYITVELAIAVLAILGNVLVCWAVWLNSNLQNVTNYFVVSLAAADIAVGVLAIPFAITISTGFCAACHGCLFIACFVLVLTQSSIFSLLAIAIDRYIAIRIPLRYNGLVTGTRAKGIIAICWVLSFAIGLTPMLGWNNCGQPKEGKNHSQGCGEGQVACLFEDVVPMNYMVYFNFFACVLVPLLLMLGVYLRIFLAARRQLKQMESQPLPGERARSTLQKEVHAAKSLAIIVGLFALCWLPLHIINCFTFFCPDCSHAPLWLMYLAIVLSHTNSVVNPFIYAYRIREFRQTFRKIIRSHVLRQQEPFKAAGTSARVLAAHGSDGEQVSLRLNGHPPGVWANGSAPHPERRPNGYALGLVSGGSAQESQGNTGLPDVELLSHELKGVCPEPPGLDDPLAQDGAGVS [ADORA2A]  5780 ± 120
5. MASPSLPGSDCSQIIDHSHVPEFEVATWIKITLILVYLIIFVMGLLGNSATIRVTQVLQKKGYLQKEVTDHMVSLACSDILVFLIGMPMEFYSIIWNPLTTSSYTLSCKLHTFLFEACSYATLLHVLTLSFERYIAICHPFRYKAVSGPCQVKLLIGFVWVTSALVALPLLFAMGTEYPLVNVPSHRGLTCNRSSTRHHEQPETSNMSICTNLSSRWTVFQSSIFGAFVVYLVVLLSVAFMCWNMMQVLMKSQKGSLAGGTRPPQLRKSESEESRTARRQTIIFLRLIVVTLAVCWMPNQIRRIMAAAKPKHDWTRSYFRAYMILLPFSETFFYLSSVINPLLYTVSSQQFRRVFVQVLCCRLSLQHANHEKRLRVHAHSTTDSARFVQRPLLFASRRQSSARRTEKIFLSTFQSEAEPQSKSQSLSLESLEPNSGAKPANSAAENGFQEHEV [GPR39]  5870 ± 200
6. MGHNGSWISPNASEPHNASGAEAAGVNRSALGEFGEAQLYRQFTTTVQVVIFIGSLLGNFMVLWSTCRTTVFKSVTNRFIKNLACSGICASLVCVPFDIILSTSPHCCWWIYTMLFCKVVKFLHKVFCSVTILSFPAIALDRYYSVLYPLERKISDAKSRELVMYIWAHAVVASVPVFAVTNVADIYATSTCTEVWSNSLGHLVYVLVYNITTVIVPVVVVFLFLILIRRALSASQKKKVIIAALRTPQNTISIPYASQREAELHATLLSMVMVFILCSVPYATLVVYQTVLNVPDTSVFLLLTAVWLPKVSLLANPVLFLTVNKSVRKCLIGTLVQLHHRYSRRNVVSTGSGMAEASLEPSIRSGSQLLEMFHIGQQQIFKPTEDEEESEAKYIGSADFQAKEIFSTCLEGEQGPQFAPSAPPLSTVDSVSQVAPAAPVEPETFPDKYSLQFGFGPFELPPQWLSETRNSKKRLLPPLGNTPEELIQTKVPKVGRVERKMSRNNKVSIFPKVDS [GPR176]  6400 ± 100

Same assay, conditions: GPCR class: A (Olfactory)

In order of falling “plasma membrane surface immunostaining intensity” value:
1. MSQVTNTTQEGIYFILTDIPGFEASHIWISIPVCCLYTISIMGNTTILTVIRTEPSVHQRMYLFLSMLALTDLGLTLTTLPTVMQLLWFNVRRISSEACFAQFFFLHGFSFMESSVLLAMSVDCYVAICCPLHYASILTNEVIGRTGLAIICCCVLAVLPSLFLLKRLPFCHSHLLSRSYCLHQDMIRLVCADIRLNSWYGFALALLIIIVDPLLIVISYTLILKNILGTATWAERLRALNNCLSHILAVLVLYIPMVGVSMTHRFAKHASPLVHVIMANIYLLAPPVMNPIIYSVKNKQIQWGMLNFLSLKNMHSR [OR51Q1]  152 ± 70
2. MKLWMESHLIVPETRPSPRMMSNQTLVTEFILQGFSEHPEYRVFLFSCFLFLYSGALTGNVLITLAITFNPGLHAPMYFFLLNLATMDIICTSSIMPKALASLVSEESSISYGGCMAQLYFLTWAASSELLLLTVMAYDRYAAICHPLHYSSMMSKVFCSGLATAVWLLCAVNTAIHTGLMLRLDFCGPNVIIHFFCEVPPLLLLSCSSTYVNGVMIVLADAFYGIVNFLMTIASYGFIVSSILKVKTAWGRQKAFSTCSSHLTVVCMYYTAVFYAYISPVSGYSAGKSKLAGLLYTVLSPTLNPLIYTLRNKEVKAALRKLFPFFRN [OR13A1]  120 ± 26
3. MENQSSISEFFLRGISAPPEQQQSLFGIFLCMYLVTLTGNLLIILAIGSDLHLHTPMYFFLANLSFVDMGLTSSTVTKMLVNIQTRHHTISYTGCLTQMYFFLMFGDLDSFFLAAMAYDRYVAICHPLCYSTVMRPQVCALMLALCWVLTNIVALTHTFLMARLSFCVTGEIAHFFCDITPVLKLSCSDTHINEMMVFVLGGTVLIVPFLCIVTSYIHIVPAILRVRTRGGVGKAFSTCSSHLCVVCVFYGTLFSAYLCPPSIASEEKDIAAAAMYTIVTPMLNPFIYSLRNKDMKGALKRLFSHRSIVSS [OR1N1]  119 ± 14
4. MNPENWTQVTSFVLLGFPSSHLIQFLVFLGLMVTYIVTATGKLLIIVLSWIDQRLHIQMYFFLRNFSFLELLLVTVVVPKMLVVILTGDHTISFVSCIIQSYLYFFLGTTDFFLLAVMSLDRYLAICRPLRYETLMNGHVCSQLVLASWLAGFLWVLCPTVLMASLPFCGPNGIDHFFRDSWPLLRLSCGDTHLLKLVAFMLSTLVLLGSLALTSVSYACILATVLRAPTAAERRKAFSTCASHLTVVVIIYGSSIFLYIRMSEAQSKLLNKGASVLSCIITPLLNPFIFTLRNDKVQQALREALGWPRLTAVMKLRVTSQRK [OR6T1]  112 ± 19

Same assay, conditions: GPCR class: B

In order of falling “plasma membrane surface immunostaining intensity” value:
1. MRFTFTSRCLALFLLLNHPTPILPAFSNQTYPTIEPKPFLYVVGRKKMMDAQYKCYDRMQQLPAYQGEGPYCNRTWDGWLCWDDTPAGVLSYQFCPDYFPDFDPSEKVTKYCDEKGVWFKHPENNRTWSNYTMCNAFTPEKLKNAYVLYYLAIVGHSLSIFTLVISLGIFVFFRSLGCQRVTLHKNMFLTYILNSMIIIIHLVEVVPNGELVRRDPVSCKILHFFHQYMMACNYFWMLCEGIYLHTLIVVAVFTEKQRLRWYYLLGWGFPLVPTTIHAITRAVYFNDNCWLSVETHLLYIIHGPVMAALVVNFFFLLNIVRVLVTKMRETHEAESHMYLKAVKATMILVPLLGIQFVVFPWRPSNKMLGKIYDYVMHSLIHFQGFFVATIYCFCNNEVQTTVKRQWAQFKIQWNQRWGRRPSNRSARAAAAAAEAGDIPIYICHQELRNEPANNQGEESAEIIPLNIIEQESSA [CALCR]  5000 ± 720
2. MKMKSQATMICCLVFFLSTECSHYRSKIHLKAGDKLQSPEGKPKTGRIQEKCEGPCISSSNCSQPCAKDFHGEIGFTCNQKKWQKSAETCTSLSVEKLFKDSTGASRLSVAAPSIPLHILDFRAPETIESVAQGIRKNCPFDYACITDMVKSSETTSGNIAFIVELLKNISTDLSDNVTREKMKSYSEVANHILDTAAISNWAFIPNKNASSDLLQSVNLFARQLHIHNNSENIVNELFIQTKGFHINHNTSEKSLNFSMSMNNTTEDILGMVQIPRQELRKLWPNASQAISIAFPTLGAILREAHLQNVSLPRQVNGLVLSVVLPERLQEIILTFEKINKTRNARAQCVGWHSKKRRWDEKACQMMLDIRNEVKCRCNYTSVVMSFSILMSSKSMTDKVLDYITCIGLSVSILSLVLCLIIEATVWSRVVVTEISYMRHVCIVNIAVSLLTANVWFIIGSHFNIKAQDYNMCVAVTFFSHFFYLSLFFWMLFKALLIIYGILVIFRRMMKSRMMVIGFAIGYGCPLIIAVTTVAITEPEKGYMRPEACWLNWDNTKALLAFAIPAFVIVAVNLIVVLVVAVNTQRPSIGSSKSQDVVIIMRISKNVAILTPLLGLTWGFGIATLIEGTSLTFHIIFALLNAFQGFFILLFGTIMDHKIRDALRMRMSSLKGKSRAAENASLGPTNGSKLMNRQG [ADGRF4]  386 ± 78

Same assay, conditions: GPCR class: Taste

For “MLGPAVLGLSLWALLHPGTGAPLCLSQQLRMKGDYVLGGLFPLGEAEEAGLRSRTRPSSPVCTRFSSNGLLWALAMKMAVEEINNKSDLLPGLRLGYDLFDTCSEPVVAMKPSLMFLAKAGSRDIAAYCNYTQYQPRVLAVIGPHSSELAMVTGKFFSFFLMPQVSYGASMELLSARETFPSFFRTVPSDRVQLTAAAELLQEFGWNWVAALGSDDEYGRQGLSIFSALAAARGICIAHEGLVPLPRADDSRLGKVQDVLHQVNQSSVQVVLLFASVHAAHALFNYSISSRLSPKVWVASEAWLTSDLVMGLPGMAQMGTVLGFLQRGAQLHEFPQYVKTHLALATDPAFCSALGEREQGLEEDVVGQRCPQCDCITLQNVSAGLNHHQTFSVYAAVYSVAQALHNTLQCNASGCPAQDPVKPWQLLENMYNLTFHVGGLPLRFDSSGNVDMEYDLKLWVWQGSVPRLHDVGRFNGSLRTERLKIRWHTSDNQKPVSRCSRQCQEGQVRRVKGFHSCCYDCVDCEAGSYRQNPDDIACTFCGQDEWSPERSTRCFRRRSRFLAWGEPAVLLLLLLLSLALGLVLAALGLFVHHRDSPLVQASGGPLACFGLVCLGLVCLSVLLFPGQPSPARCLAQQPLSHLPLTGCLSTLFLQAAEIFVESELPLSWADRLSGCLRGPWAWLVVLLAMLVEVALCTWYLVAFPPEVVTDWHMLPTEALVHCRTRSWVSFGLAHATNATLAFLCFLGTFLVRSQPGCYNRARGLTFAMLAYFITWVSFVPLLANVQVVLRPAVQMGALLLCVLGILAAFHLPRCYLLMRQPGLNTPEFFLGGGPGDAQGQNDGNTGNQGKHE [TAS1R3]”, the “plasma membrane surface immunostaining intensity” value was 122 ± 9.1.
